Laboratory results as given in the supplement of paper PMC10899765.

How the values were obtained:
Details in all cases: 20 nM; 72 h
MCF10A [1] = assay: 5+ nucleoli phenotype percent effect (relative to siNT 0% and siKIF11 100%); higher = more cells with five or more nucleoli
Description: (§1)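 After 72 h, cells were fixed and stained with Hoechst and anti-fibrillarin, and nucleoli per nucleus were counted with CellProfiler. Values are plate-adjusted percent effect for the one-nucleolus and 5+ nucleoli phenotypes, normalised to siNT (0%) and to the positive controls siNOL11 or siKIF11 (100%), as the mean of biological triplicates. Percent viability is the nuclei count relative to siNT.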

MCF10A [2] = assay: percent viability (nuclei count relative to siNT); higher = more viable cells
Description: as §1

MCF10A [3] = assay: one-nucleolus phenotype percent effect (relative to siNT 0% and siNOL11 100%); higher = more cells with one nucleolus (ribosome biogenesis inhibition)
Description: as §1

Row | Sequence | 5+ nucleoli phenotype percent effect (MCF10A [1]) [%] | percent viability (MCF10A [2]) [%] | one-nucleolus phenotype percent effect (MCF10A [3]) [%]
1 | AGAAGUGGCUAAUAAUAUUGA [hsa-miR-4795-5p] | -2.9 | 34.5 | -14.7
2 | AGAAUUGCGUUUGGACAAUCAGU [hsa-miR-2964a-3p] | -29.2 | 28.5 | 34.8
3 | AGAAUUGUGGCUGGACAUCUGU [hsa-miR-219-2-3p] | -41.8 | 33.5 | 35.6
4 | AGACACAUUUGGAGAGGGAACC [hsa-miR-642a-3p] | 16 | 90.2 | -16.3
5 | AGACACAUUUGGAGAGGGACCC [hsa-miR-642b-3p] | -6.68 | 71.1 | -3.17
6 | AGACACUAUACGAGUCAUAU [hsa-miR-3117-5p] | 12.6 | 120 | 0.975
7 | AGACAGUAGUUCUUGCCUGGUU [hsa-miR-4645-3p] | -25 | 52.7 | 18.2
8 | AGACAUCAAGAUCAGUCCCAAA [hsa-miR-3913-3p] | 10.4 | 21.7 | 34.3
9 | AGACCAUGGGUUCUCAUUGU [hsa-miR-591] | 10.2 | 84.8 | -3.76
10 | AGACCCUGCAGCCUUCCCACC [hsa-miR-4725-5p] | -16 | 36 | 17.4
11 | AGACCCUGGUCUGCACUCUAUC [hsa-miR-504] | 3.4 | 64.6 | -10.9
12 | AGACCUGGCCCAGACCUCAGC [hsa-miR-631] | -2.57 | 25.9 | 24.7
13 | AGACUGACCUUCAACCCCACAG [hsa-miR-6855-3p] | -20.8 | 75.7 | -4.32
14 | AGACUGACGGCUGGAGGCCCAU [hsa-miR-4513] | 21.1 | 43.7 | -13.8
15 | AGACUUCCCAUUUGAAGGUGGC [hsa-miR-617] | -37.8 | 43.8 | 43.9
16 | AGAGAAGAAGAUCAGCCUGCA [hsa-miR-1253] | 37.9 | 84.6 | -16.8
17 | AGAGAUGAAGCGGGGGGGCG [hsa-miR-6088] | 6.48 | 91.6 | -6.8
18 | AGAGAUGCCGCCUUGCUCCUU [hsa-miR-4708-5p] | -25.3 | 45.7 | 21
19 | AGAGAUUGGUAGAAAUCAGGU [hsa-miR-5186] | -25.3 | 33.8 | 28.7
20 | AGAGCUCACAGCUGUCCUUCUCUA [hsa-miR-3670] | -9.38 | 25.7 | 17.6

Row | Sequence | 5+ nucleoli phenotype percent effect (MCF10A [1]) [%] | percent viability (MCF10A [2]) [%] | one-nucleolus phenotype percent effect (MCF10A [3]) [%]
21 | AGAGCUGAGACUAGAAAGCCCA [hsa-miR-3160-3p] | -5.31 | 19.1 | 23.1
22 | AGAGCUGGCUGAAGGGCAG [hsa-miR-4487] | 16.5 | 18.7 | 25.5
23 | AGAGCUUAGCUGAUUGGUGAAC [hsa-miR-27b-5p] | -22.4 | 78.6 | 17.8
24 | AGAGGACCCGUAGCUGCUAGAAGG [hsa-miR-4751] | 41.7 | 106 | -23.3
25 | AGAGGAUACCCUUUGUAUGUU [hsa-miR-1185-5p] | 5.5 | 34.2 | 2.36
26 | AGAGGCUGAGAAGGUGAUGUUG [hsa-miR-6884-5p] | -24.7 | 22.3 | 41.6
27 | AGAGGCUGGCCGUGAUGAAUUC [hsa-miR-485-5p] | 22.1 | 216 | -17.3
28 | AGAGGCUUUGUGCGGAUACGGGG [hsa-miR-3188] | -26 | 29.7 | 33.1
29 | AGAGGUAGGUGUGGAAGAA [hsa-miR-4458] | 36.9 | 42.7 | -20.7
30 | AGAGGUAGUAGGUUGCAUAGUU [hsa-let-7d-5p] | 30.8 | 28.7 | -18.5
31 | AGAGGUAUAGGGCAUGGGAA [hsa-miR-202-3p] | 3.86 | 42.3 | 10.1
32 | AGAGGUUAUCCGUGUUAUGUUC [hsa-miR-655-5p] | -32.8 | 32.4 | 22.9
33 | AGAGGUUGCCCUUGGUGAAUUC [hsa-miR-377-5p] | -35.2 | 22 | 36.3
34 | AGAGUCGGCGACGCCGCCAGC [hsa-miR-4785] | -30.3 | 49.5 | 25.1
35 | AGAGUCUUGUGAUGUCUUGC [hsa-miR-924] | -44.9 | 42.5 | 24.7
36 | AGAGUUAACUCAAAAUGGACUA [hsa-miR-4424] | 6.94 | 51.7 | -9.95
37 | AGAGUUGAGUCUGGACGUCCCG [hsa-miR-219-1-3p] | 30.8 | 88.9 | -25
38 | AGAUAUUUUGAGUGUUUGGAAUUG [hsa-miR-3145-3p] | -8.4 | 48.7 | -11.7
39 | AGAUCGACCGUGUUAUAUUCGC [hsa-miR-369-5p] | 3.93 | 53 | -0.708
40 | AGAUGUAUGGAAUCUGUAUAUAUC [hsa-miR-3171] | 13.6 | 91.9 | -12.5

Row | Sequence | 5+ nucleoli phenotype percent effect (MCF10A [1]) [%] | percent viability (MCF10A [2]) [%] | one-nucleolus phenotype percent effect (MCF10A [3]) [%]
41 | AGAUGUCCAGCCACAAUUCUCG [hsa-miR-2964a-5p] | -43.9 | 30.3 | 39.4
42 | AGAUUGUUUCUUUUGCCGUGCA [hsa-miR-4445-5p] | -21.9 | 19.2 | 34.7
43 | AGCAAAAUAAGCAAAUGGAAAA [hsa-miR-1468-3p] | 29.6 | 128 | -19.1
44 | AGCAAGGCGGCAUCUCUCUGAU [hsa-miR-4708-3p] | -21.8 | 43.7 | 16.1
45 | AGCACACUGAGCGAGCGGAC [hsa-miR-8064] | -14.8 | 44.2 | -0.792
46 | AGCAGAAGCAGGGAGGUUCUCCCA [hsa-miR-298] | -22.8 | 25.9 | 17.9
47 | AGCAGACUUGACCUACAAUUA [hsa-miR-4771] | 3.81 | 53.6 | -9.9
48 | AGCAGAGGCAGAGAGGCUCAGG [hsa-miR-2467-3p] | -24.4 | 4.65 | 26.3
49 | AGCAGCAUUGUACAGGGCUAUCA [hsa-miR-107] | -26.1 | 22.7 | 29.9
50 | AGCAGCAUUGUACAGGGCUAUGA [hsa-miR-103a-3p] | -29 | 36.3 | 15.6
51 | AGCAGGGCUGGGGAUUGCA [hsa-miR-6132] | -31 | 20.5 | 57.1
52 | AGCAGGUGCGGGGCGGCG [hsa-miR-3665] | -20.8 | 33 | 40.6
53 | AGCAGUGUUUGUUUUGCCCACA [hsa-miR-6499-3p] | -48 | 30.3 | 16.7
54 | AGCAUACACCUGUAGUCCUAGA [hsa-miR-5689] | 2.26 | 66.7 | 0.904
55 | AGCAUGACAGAGGAGAGGUGG [hsa-miR-6076] | -17.6 | 33.8 | 7.38
56 | AGCCAAGUGGAAGUUACUUUA [hsa-miR-4480] | -37.2 | 21.9 | 33.8
57 | AGCCAGGCUCUGAAGGGAAAGU [hsa-miR-4755-3p] | 3.33 | 59.3 | 7.85
58 | AGCCCCCUGGCCCCAAACCC [hsa-miR-4313] | 6.68 | 38.7 | -4.86
59 | AGCCCCUGCCCACCGCACACUG [hsa-miR-210-5p] | 53 | 101 | -21
